PMC7846482 (The Journal of Biological Chemistry, 2021)

Key:
Settings in all cases: both partners purified
[1] = biological target: T1, SARS-CoV-2 spike receptor-binding domain (RBD) glycoprotein from the mammalian expression system (SARS-CoV-2 Wuhan-Hu-1, UniProt P0DTC2); experiment: western blotting
[2] = biological target: T1, SARS-CoV-2 spike receptor-binding …; experiment: ELISA
[3] = biological target: T1, SARS-CoV-2 spike receptor-binding …; experiment: co-IP

Row | Binder | binding result [1] | binding result [3] | other results
1 | mouse anti-SARS-CoV-2 spike monoclonal antibody clone R52 (antibody, V domains shown) VH: QIQLVQSGPELKKPGETVKISCKASGYTFTNYGMNWVKQAPGNGLRWMGWINTYTREPSYAADFKGRFAFSLETSARAAYLQINNLKNEDTATYFCARNGAMDYWGQGTSVTVSS VL: not shown | binds | – | –
2 | mouse anti-SARS-CoV-2 spike monoclonal antibody clone R31 (antibody, V domains shown) VH: QVQLQQSGAELVRPGTSVKISCKASYTFTNYWLAWVKQRPGHGLEWIGDIYPGGAYTNFNEKFKGKATLTADTSSSTAYMQLSSLTSEDSAVYFCARDGHYGYAMDYWGQGTSVTVSS VL: DIVMTQAAFSNPVTLGTSASISCRSSKSLLHSNGITYLYWYLQKPGQSPQLLIYQMSDLASGVPDRFSSSGSGTDFTLRISRVEAEDVGVYYCAQNLELPRTFGGGIKLEIK | binds | – | –
3 | mouse anti-SARS-CoV-2 spike monoclonal antibody clone R15 (antibody, V domains shown) VH: QIQLVQSGPELKKPGETVKISCKASGYTFTKYGINWVKQAPGKDLKWMGWINTYTGEPAYGDDFKGRFAFSLETSTNTAYLQINNFKNEDTATYFCARNGAMDYWGQGTSVTVSS VL: not shown | – | – | binding result [2]: binds
4 | mouse anti-SARS-CoV-2 spike monoclonal antibody clone R22 (antibody, V domains shown) VH: EVQLQQSGPELVRPGASVKISCKTSGYTFTEYIIHWVKQSHGKSLEWIGGIDPNNGDTSYNQKFKGKASLTVDKSSSTAYMELRSLTSDDSAVYYCARLDFDYWGQGTTLTVSS VL: DIVMTQSHKFMSTSVGDRVSITCKASQDVRTAVAWYQQKPGQSPKLLIYWASTRYTGVPDRFTGSGSGTDYTLTISSVQAEDLALYYCQQHDSTPLTFGAGTKLELK | binds | – | –
5 | mouse anti-SARS-CoV-2 spike monoclonal antibody clone S1D7 (antibody, V domains shown) VH: QVQLQQSGAELVKPGASVKLSCKASGYTFTSYYIYWMKQRPGQGLEWIGEINPNNGGTNFNEKFKSKATLTVDKSSSTAYMQLSSLTSEDSAVYYCTRGHSDYWGQGTTLTVSS VL: DIVLTQSPASLAVSLGQRATISCRASESVEYYGTGLMQWYQQKPGQPPKLLIYAASNVESGVPARFSGSGSGTDFSLNIHPVEEDDIAMYFCQQTRKVPYTFGGGTKLEIK | – | binds | –
6 | mouse anti-SARS-CoV-2 spike monoclonal antibody clone S3D8 (antibody, V domains shown) VH: QVQLQQSGAELVKPGASVKLSCKASGYTFTSYYMYWMKQRPGQGLEWIGEINPSNGGTNFNEKFKSKATLTVDKSSSTAYMQLSSLTSEDSAVYYCTIFITRDAMDYWGQGTSVTVSS VL: QIVLTQSPAIMSASPGEKVTLTCSASSSVSSSYLFWYQQKPGSSPKLWIYTTSNLASGVPARFSGSGSGTSYSLTISSMEAEDAASYFCHQWSSYPPTFGAGTKLELK | – | binds | –
